The values below are quoted from earlier work in paper PMC4031507.

This data set concerns the target Cys+1 (UniProt position 252, VVKNKCLAEGT).

Broadly, the pKa is the negative logarithm of the acid dissociation constant. In the case of “RecA intein (Mtu RecA intein) with C-extein Cys+1 (Mycobacterium tuberculosis)”, the pKa was 5.8.
